Results taken from doi:10.1101/2023.11.14.567104.

Molecular target: Recombinant soluble integrin αvβ3 (UniProt P06756)
Experiment: SPR

Kd: 470 nM
Substance: Heparin-binding domain (HBD, residues 111-165) of VEGF165, wild type (domain or fragment)
